Assay results reported in US20050084491A1.

Biological target: surface integrins on A375.S2 cells (human melanoma cells)
Experiment: flow cytometry on A375.S2 cells, CNTO95 10 ug/ml, no peptide (cells only: 3.36)

CNTO95 (antibody)
Mean Channel Fluorescence: 89.7
